Biological target: HLA-DQ2.5/33mer gliadin peptide on IHW9088 cells (human)
Test: cell-based or functional assay

B1: DQN0139bb//IC17 (bispecific antibody, human IgG1, kappa)
heavy 1: QSLEESGGRLVTPGTALTLTCTVSGFSLSSYAMGWVRQAPGKGLEYIGWTSPGDSAYYASWTKGRFTISRTSTTVELKITSPTTEDTATYFCARDAAYIGHWAFNLWGPGTLVTVSSASTKGPSVFPLAPSSKSTSGGTAALGCLVKDYFPEPVTVSWNSGALTSGVHTFPAVLQSSGLYSLSSVVTVPSSSLGTQTYICNVNHKPSNTKVDKRVEPKSCDKTHTCPPCPAPELRRGPSVFLFPPKPKDTLMISRTPEVTCVVVDVSHEDPEVKFNWYVDGVEVHNAKTKPREEQYNSTYRVVSVLTVLHQDWLNGKEYKCKVSNKALPAPIEKTISKAKGQPREPQVYTLPPSREEMTKNQVSLTCLVKGFYPSDIAVEWESNGQPENNYKTTPPYLDSDGSFFLYSKLTVDKSRWQQGNVFSCSVMHEALHNHYTQESLSLSP
light 1: DVVMTQTPASVSAPVGGTVTINCQASESIYSNLAWYQQKPGQPPKLLIYGASTLESGVPSRVKGSGYGTQFTLTISDLECADAATYYCQQYYGSSSTAFTFGGGTKVEIKRTVAAPSVFIFPPSDEQLKSGTASVVCLLNNFYPREAKVQWKVDNALQSGNSQESVTEQDSKDCTYSLSSTLTLSKADYEKHKVYACEVTHQGLSSPVTKSFNRGEC
heavy 2: QVQLQQSGPQLVRPGASVKISCKASGYSFTSYWMHWVNQRPGQGLEWIGMIDPSYSETRLNQKFKDKATLTVDKSSSTAYMQLSSPTSEDSAVYYCALYGNYFDYWGQGTTLTVSSASTKGPSVFPLAPSSKSTSGGTAALGCLVKDYFPEPVTVSWNSGALTSGVHTFPAVLQSSGLYSLSSVVTVPSSSLGTQTYICNVNHKPSNTKVDKRVEPKSCDKTHTCPPCPAPELRRGPSVFLFPPKPKDTLMISRTPEVTCVVVDVSHEDPEVKFNWYVDGVEVHNAKTKPREEQYNSTYRVVSVLTVLHQDWLNGKEYKCKVSNKALPAPIEKTISKAKGQPREPQVYTLPPSRKEMTKNQVSLTCLVKGFYPSDIAVEWESNGQPENNYKTTPPYLDSDGSFFLYSKLTVDKSRWQQGNVFSCSVMHEALHNHYTQKSLSLSP
light 2: DIQMTQSSSSFSVSLGDRVTITCKASEDIYNRLAWYQQKPGNAPRLLISGATSLETGVPSRFSGSGSGKDYTLSITSLQTEDVATYYCQQYWSTPYTFGGGTKLEVKRTVAAPSVFIFPPSDEQLKSGTASVVCLLNNFYPREAKVQWKVDNALQSGNSQESVTEQDSKDSTYSLSSTLTLSKADYEKHKVYACEVTHQGLSSPVTKSFNRGEC
IC50 (read off the curve): ~0.4 microgram/mL
